Results as given in the Human Domainome abundance scans (Beltran et al. 2025).
± gives the uncertainty stated by the source.

B1: V(D)J recombination-activating protein 2, residues 415 to 491; numbered along this chain, P55895 (parent)
chain: YWITCCPTCDVDINTWVPFYSTELNKPAMIYCSHGDGHWVHAQCMDLAERTLIHLSAGSNKYYCNEHVEIARALHTP
B2: E3 ubiquitin-protein ligase NEDD4, residues 836 to 881; numbered along this chain, P46934 (parent)
chain: EIEQGFLPKGWEVRHAPNGRPFFIDHNTKTTTWEDPRLKIPAHLRG

Variants of: B1
Assay: abundance fitness (aPCA) (normalised: wild type 0, dead -1); higher = more abundant; growth selection in yeast, the domain comes from the species named
Settings: Homo sapiens

Abundance fitness of substitutions, site by site:
A73: L 0.053 ± 0.084; R 0.001 ± 0.057; T 0.033 ± 0.088; E -0.009 ± 0.1; M -0.121 ± 0.1; I -0.042 ± 0.098; Y -0.109 ± 0.17; G 0.096 ± 0.071; Q 0.009 ± 0.14; W -0.104 ± 0.086; D 0.019 ± 0.12; V -0.257 ± 0.071; P 0.027 ± 0.13; S -0.089 ± 0.14
H75: N 0.051 ± 0.26; C -0.155 ± 0.092; Q 0.089 ± 0.11; S -0.042 ± 0.081; I -0.003 ± 0.14; L -0.013 ± 0.049; G 0.087 ± 0.11; Y -0.179 ± 0.1; E 0.029 ± 0.12; T 0.089 ± 0.068; K -0.003 ± 0.1; A 0.002 ± 0.08; P -0.111 ± 0.063; R -0.001 ± 0.058; W -0.069 ± 0.064; D 0.094 ± 0.12; V -0.075 ± 0.08; F -0.087 ± 0.1
P77: R 0.152 ± 0.31; Q -0.011 ± 0.26; W -0.237 ± 0.38; G -0.157 ± 0.35; A -0.123 ± 0.21; C -0.243 ± 0.34; N -0.325 ± 0.35; S -0.354 ± 0.29
T76: R -0.091 ± 0.073; N -0.13 ± 0.13; P 0.054 ± 0.11; L -0.029 ± 0.078; S -0.046 ± 0.077; A 0.005 ± 0.076; W -0.321 ± 0.11; G -0.057 ± 0.056; C -0.416 ± 0.18; M -0.034 ± 0.089; Q -0.009 ± 0.097; I -0.155 ± 0.14; K 0.081 ± 0.094; V -0.074 ± 0.064; F -0.373 ± 0.17; H -0.149 ± 0.2
L74: G 0.092 ± 0.16; Q -0.062 ± 0.25
R72: F -0.131 ± 0.18; D 0.032 ± 0.21; I -0.121 ± 0.19; V -0.016 ± 0.12; T 0.056 ± 0.08; N 0.059 ± 0.21; Q -0.085 ± 0.12; Y -0.332 ± 0.16; G 0.022 ± 0.11; W -0.168 ± 0.075; S 0.073 ± 0.071; K 0.022 ± 0.18; P 0.01 ± 0.1; E -0.042 ± 0.12; C -0.143 ± 0.16

Variants of: B2
Assay: as above
Settings: Homo sapiens

Abundance fitness: each site, then its substitutions
E3: W -0.35 ± 0.089; F -0.109 ± 0.098; L -0.421 ± 0.1; Y -0.07 ± 0.092; C -0.141 ± 0.078; M -0.073 ± 0.071; V -0.162 ± 0.057; R -0.366 ± 0.044; Q 0.098 ± 0.066; G -0.044 ± 0.041; K -0.096 ± 0.074; N 0.097 ± 0.083; A -0.251 ± 0.057; T -0.029 ± 0.042; D -0.455 ± 0.11; I -0.15 ± 0.11
A16: E -0.387 ± 0.064; K -0.698 ± 0.23; I -0.193 ± 0.23; C -0.11 ± 0.081; N -0.435 ± 0.22; L -0.345 ± 0.1; G -0.108 ± 0.05; R -0.668 ± 0.099; M -0.216 ± 0.11; V -0.505 ± 0.066; Q -0.353 ± 0.069; Y -0.657 ± 0.2; T 0.127 ± 0.079; P -0.416 ± 0.14
H15: P -0.507 ± 0.083; G -0.508 ± 0.065; Y -0.147 ± 0.071; E -0.116 ± 0.072; D -0.031 ± 0.092; I -0.051 ± 0.081; W -0.133 ± 0.049; N -0.113 ± 0.037; K 0.081 ± 0.064; R -0.004 ± 0.033; Q -0.257 ± 0.098; A -0.095 ± 0.079; L -0.013 ± 0.033; C 0.166 ± 0.064; T -0.047 ± 0.042; M -0.34 ± 0.084; F -0.074 ± 0.087
K9: S -0.048 ± 0.04; F -0.825 ± 0.29; G -0.252 ± 0.042; P -0.211 ± 0.066; A -0.124 ± 0.035; L -0.257 ± 0.034; T -0.237 ± 0.091; M -0.344 ± 0.06; W -0.52 ± 0.047; Y -0.316 ± 0.037; C -0.268 ± 0.087; H -0.251 ± 0.11; R -0.205 ± 0.056; N -0.112 ± 0.038; Q -0.078 ± 0.047; E -0.119 ± 0.037
P17: E 0.016 ± 0.053; A -0.075 ± 0.064; C -0.295 ± 0.055
R14: F -0.272 ± 0.054; Q -0.121 ± 0.08; C -0.07 ± 0.047; Y -0.407 ± 0.054; E -0.539 ± 0.091; A -0.156 ± 0.048; G -0.114 ± 0.044; T -0.562 ± 0.075; M -0.525 ± 0.08; I -0.556 ± 0.094; H -0.47 ± 0.12; N -0.783 ± 0.17; W -0.458 ± 0.061; P -0.407 ± 0.13; D -0.289 ± 0.034; S -0.297 ± 0.042
E1: G -0.27 ± 0.046; Y 0.202 ± 0.45; K -0.095 ± 0.48; T 0.091 ± 0.12; V -0.153 ± 0.076; A -0.259 ± 0.12; N 0.381 ± 0.29; D -0.219 ± 0.14; R -0.07 ± 0.2
F6: K 0.117 ± 0.052; C 0.265 ± 0.06; G 0.09 ± 0.04
